Experimental data taken from US20260248972A1, “DUAL RECEPTOR TARGETING RADIOLIGANDS AND USES THEREOF RELATED APPLICATIONS” (priority 2022, published 2026).

Experiment: in vivo
Settings: BALB/c nude, mouse, in vivo, iv, total radioactivity
In short: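 Compounds labelled with ^177Lu in 0.5 M NaOAc pH 4.5 at 95° C for 15 min, then used directly or diluted in PBS with 3 mg/mL ascorbate. BALB/c nude mice bore subcutaneous AR42J flank xenografts (0.05-0.50 g). Organs excised at 4, 24 and 72 h post-injection and γ-counted for % ID and % ID/g.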

With C[C@@H](O)[C@H](NC(=O)[C@@H]1CSSC[C@H](NC(=O)[C@@H](Cc2ccccc2)NC(=O)[C@H](CCCCNC(=O)c2cccc(NC(=O)N[C@@H]3CN(C4CCCCC4)c4ccccc4N(CC(=O)C(C)(C)C)C3=O)c2)NC(=O)COCCOCCNC(=O)CN2CCN(CC(=O)O)CCN(CC(=O)O)CCN(CC(=O)O)CC2)C(=O)N[C@@H](Cc2ccc(O)cc2)C(=O)N[C@H](Cc2c[nH]c3ccccc23)C(=O)N[C@@H](CCCCN)C(=O)N[C@@H]([C@@H](C)O)C(=O)N1)C(=O)O [^177Lu-I-35, metal not drawn] the tissue uptake at 4 h (% ID/g Adrenal gland) was 2.8 %ID/g, the tissue uptake at 24 h (% ID/g Adrenal gland) was 2.3 %ID/g and the tissue uptake at 72 h (% ID/g Adrenal gland) was 0.34 %ID/g. It also gave a tissue uptake at 4 h (% ID/g Blood) of 1.98 %ID/g, a tissue uptake at 24 h (% ID/g Blood) of 0.11 %ID/g and a tissue uptake at 72 h (% ID/g Blood) of 0.03 %ID/g. It also gave a tissue uptake at 4 h (% ID/g Fat) of 3.49 %ID/g, a tissue uptake at 24 h (% ID/g Fat) of 0.75 %ID/g and a tissue uptake at 72 h (% ID/g Fat) of 0.41 %ID/g. The tissue uptake at 4 h (% ID/g Femur) was 1.01 %ID/g, the tissue uptake at 24 h (% ID/g Femur) was 0.52 %ID/g and the tissue uptake at 72 h (% ID/g Femur) was 0.21 %ID/g. It also gave a tissue uptake at 4 h (% ID/g Heart) of 1.26 %ID/g, a tissue uptake at 24 h (% ID/g Heart) of 0.56 %ID/g and a tissue uptake at 72 h (% ID/g Heart) of 0.25 %ID/g. It also gave a tissue uptake at 4 h (% ID/g Intestine) of 2.36 %ID/g, a tissue uptake at 24 h (% ID/g Intestine) of 0.84 %ID/g and a tissue uptake at 72 h (% ID/g Intestine) of 0.72 %ID/g. It also gave a tissue uptake at 4 h (% ID/g Kidney) of 18.5 %ID/g, a tissue uptake at 24 h (% ID/g Kidney) of 6.06 %ID/g and a tissue uptake at 72 h (% ID/g Kidney) of 4.51 %ID/g. For the same compound, the tissue uptake at 4 h (% ID/g Liver) was 18.1 %ID/g, the tissue uptake at 24 h (% ID/g Liver) was 5.06 %ID/g and the tissue uptake at 72 h (% ID/g Liver) was 2.41 %ID/g. It also gave a tissue uptake at 4 h (% ID/g Lung) of 3.44 %ID/g, a tissue uptake at 24 h (% ID/g Lung) of 1.73 %ID/g and a tissue uptake at 72 h (% ID/g Lung) of 0.66 %ID/g. It also gave a tissue uptake at 4 h (% ID/g Muscle) of 0.42 %ID/g, a tissue uptake at 24 h (% ID/g Muscle) of 0.12 %ID/g and a tissue uptake at 72 h (% ID/g Muscle) of 0.03 %ID/g. It also gave a tissue uptake at 4 h (% ID/g Pancreas) of 5.03 %ID/g, a tissue uptake at 24 h (% ID/g Pancreas) of 0.96 %ID/g and a tissue uptake at 72 h (% ID/g Pancreas) of 0.34 %ID/g. For the same compound, the tissue uptake at 4 h (% ID/g Spleen) was 0.82 %ID/g, the tissue uptake at 24 h (% ID/g Spleen) was 0.47 %ID/g and the tissue uptake at 72 h (% ID/g Spleen) was 0.28 %ID/g. It also gave a tissue uptake at 4 h (% ID/g Stomach) of 6.98 %ID/g, a tissue uptake at 24 h (% ID/g Stomach) of 3.09 %ID/g and a tissue uptake at 72 h (% ID/g Stomach) of 2.29 %ID/g. It also gave a tissue uptake at 4 h (% ID/g Tumor) of 27.2 %ID/g, a tissue uptake at 24 h (% ID/g Tumor) of 17.8 %ID/g and a tissue uptake at 72 h (% ID/g Tumor) of 18 %ID/g.
With C[C@@H](O)[C@H](NC(=O)[C@@H]1CSSC[C@H](NC(=O)[C@@H](Cc2ccccc2)NC(=O)CCOCCOCCOCCNC(=O)[C@H](CCCCNC(=O)c2cccc(NC(=O)N[C@@H]3CN(C4CCCCC4)c4ccccc4N(CC(=O)C(C)(C)C)C3=O)c2)NC(=O)CN2CCN(CC(=O)O)CCN(CC(=O)O)CCN(CC(=O)O)CC2)C(=O)N[C@@H](Cc2ccc(O)cc2)C(=O)N[C@H](Cc2c[nH]c3ccccc23)C(=O)N[C@@H](CCCCN)C(=O)N[C@@H]([C@@H](C)O)C(=O)N1)C(=O)O [Compound I-38, DOTA-K(Z360)-PEG3-f[CYwKTC]T-OH] the tissue to tissue ratio at 24 h (T/K Tumor/Kidney ratio) was 1.8, the tissue to tissue ratio at 24 h (T/L Tumor/Liver ratio) was 6.1 and the tissue to tissue ratio at 24 h (T/P Tumor/Pancreas ratio) was 18. It also gave a tissue to tissue ratio at 24 h (T/Sp Tumor/Spleen ratio) of 72, a tissue to tissue ratio at 24 h (T/St Tumor/Stomach ratio) of 4.2 and a tissue uptake at 24 h (uptake Kidney) of 7.9 %ID/g. It also gave a tissue uptake at 24 h (uptake Liver) of 2.3 %ID/g, a tissue uptake at 24 h (uptake Pancreas) of 0.8 %ID/g and a tissue uptake at 24 h (uptake Spleen) of 0.2 %ID/g. The tissue uptake at 24 h (uptake Stomach) was 3.4 %ID/g and the tissue uptake at 24 h (uptake Tumor) was 14.3 %ID/g.
In the case of C[C@@H](O)[C@H](NC(=O)[C@@H]1CSSC[C@H](NC(=O)[C@@H](Cc2ccccc2)NC(=O)COCCOCCNC(=O)[C@H](CCCCNC(=O)CCC(C(=O)O)N2CCN(CC(=O)O)CCN(CC(=O)O)CCN(CC(=O)O)CC2)NC(=O)COCCOCCNC(=O)CC[C@H](NC(=O)CC[C@H](NC(=O)c2cccc(NC(=O)N[C@@H]3CN(C4CCCCC4)c4ccccc4N(CC(=O)C(C)(C)C)C3=O)c2)C(=O)O)C(=O)O)C(=O)N[C@@H](Cc2ccc(O)cc2)C(=O)N[C@H](Cc2c[nH]c3ccccc23)C(=O)N[C@@H](CCCCN)C(=O)N[C@@H]([C@@H](C)O)C(=O)N1)C(=O)O (some centres unmarked) [^177Lu-1-13, metal not drawn], the tissue uptake at 4 h (% ID/g Adrenal gland) is reported as 3.6 %ID/g, the tissue uptake at 24 h (% ID/g Adrenal gland) is reported as 0.81 %ID/g and the tissue uptake at 72 h (% ID/g Adrenal gland) is reported as 0.73 %ID/g. For the same compound, the tissue uptake at 4 h (% ID/g Blood) was 0.64 %ID/g, the tissue uptake at 24 h (% ID/g Blood) was 0.09 %ID/g and the tissue uptake at 72 h (% ID/g Blood) was 0.03 %ID/g. It also gave a tissue uptake at 4 h (% ID/g Femur) of 0.21 %ID/g, a tissue uptake at 24 h (% ID/g Femur) of 0.27 %ID/g and a tissue uptake at 72 h (% ID/g Femur) of 0.14 %ID/g. It also gave a tissue uptake at 4 h (% ID/g Heart) of 0.54 %ID/g, a tissue uptake at 24 h (% ID/g Heart) of 0.19 %ID/g and a tissue uptake at 72 h (% ID/g Heart) of 0.11 %ID/g. It also gave a tissue uptake at 4 h (% ID/g Intestine) of 0.89 %ID/g, a tissue uptake at 24 h (% ID/g Intestine) of 0.37 %ID/g and a tissue uptake at 72 h (% ID/g Intestine) of 0.22 %ID/g. It also gave a tissue uptake at 4 h (% ID/g Kidney) of 58.6 %ID/g, a tissue uptake at 24 h (% ID/g Kidney) of 46.7 %ID/g and a tissue uptake at 72 h (% ID/g Kidney) of 22.5 %ID/g. The tissue uptake at 4 h (% ID/g Liver) was 0.79 %ID/g, the tissue uptake at 24 h (% ID/g Liver) was 1.21 %ID/g and the tissue uptake at 72 h (% ID/g Liver) was 0.52 %ID/g. It also gave a tissue uptake at 4 h (% ID/g Lung) of 1.57 %ID/g, a tissue uptake at 24 h (% ID/g Lung) of 0.43 %ID/g and a tissue uptake at 72 h (% ID/g Lung) of 0.38 %ID/g. For the same compound, the tissue uptake at 4 h (% ID/g Muscle) was 0.08 %ID/g, the tissue uptake at 24 h (% ID/g Muscle) was 0.08 %ID/g and the tissue uptake at 72 h (% ID/g Muscle) was 0.05 %ID/g. The tissue uptake at 4 h (% ID/g Pancreas) was 1.59 %ID/g, the tissue uptake at 24 h (% ID/g Pancreas) was 1.21 %ID/g and the tissue uptake at 72 h (% ID/g Pancreas) was 0.91 %ID/g. It also gave a tissue uptake at 4 h (% ID/g Spleen) of 0.43 %ID/g, a tissue uptake at 24 h (% ID/g Spleen) of 0.47 %ID/g and a tissue uptake at 72 h (% ID/g Spleen) of 0.64 %ID/g. For the same compound, the tissue uptake at 4 h (% ID/g Stomach) was 2.23 %ID/g, the tissue uptake at 24 h (% ID/g Stomach) was 2.19 %ID/g and the tissue uptake at 72 h (% ID/g Stomach) was 1.95 %ID/g. For the same compound, the tissue uptake at 4 h (% ID/g Tumor) was 14.6 %ID/g, the tissue uptake at 24 h (% ID/g Tumor) was 14.8 %ID/g and the tissue uptake at 72 h (% ID/g Tumor) was 6.83 %ID/g.
